Reference: PMC12022260

Molecular target: T1, His-FleQ (Azotobacter vinelandii AEIV) (UniProt C1DQF1)
T1 sequence: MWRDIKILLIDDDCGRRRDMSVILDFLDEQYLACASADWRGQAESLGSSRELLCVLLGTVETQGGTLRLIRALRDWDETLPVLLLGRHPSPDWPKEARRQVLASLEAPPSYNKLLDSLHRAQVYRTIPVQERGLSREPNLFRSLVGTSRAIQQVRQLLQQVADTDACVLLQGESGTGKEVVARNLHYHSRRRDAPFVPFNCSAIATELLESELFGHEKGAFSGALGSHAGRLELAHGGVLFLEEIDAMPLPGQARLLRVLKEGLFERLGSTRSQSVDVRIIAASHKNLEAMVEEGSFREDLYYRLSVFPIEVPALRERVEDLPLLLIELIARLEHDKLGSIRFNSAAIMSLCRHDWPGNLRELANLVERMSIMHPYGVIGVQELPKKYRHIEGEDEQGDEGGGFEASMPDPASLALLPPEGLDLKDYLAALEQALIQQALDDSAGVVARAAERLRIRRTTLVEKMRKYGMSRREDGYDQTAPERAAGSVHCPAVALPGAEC
Assay: EMSA
Details: 10 mM Tris pH 8, 8 mM Mg acetate, 50 mM KCl, 10 ug/ml BSA, 5% glycerol; 100 ng DNA in 20 ul; room temperature 20 min; 6% native acrylamide gel, 0.5x-1x TBE …

| Sequence | binding |
| --- | --- |
| CCGAAAATGCTGATACGCATTGCGTTCACCTCGTCCTTATTTAACGAAAAGTCGACGACTAAAACCCTTGGTCGTCACATTGCCGGCGGCCTTCAAGGGAAATTTGCAGGCCGAATTATAGTCAATAAAATGTCGTGCCAAATGAGCTGGCGTTAAAAGGCAGGTTGCAAGGGATGCTTTATAACTGCTCAAGCGATCCATGTTCG (double strand) [algD proximal region] | binds |
| GCGAATTCGGACGCCGCGAGTAAAACGAAAAAGCAAGCCGCCTGAACCCACACTTGCGCTCCCGGCGTTTTGTACCATGCTTTTCCTGAATCATTGTGCTAAGGAGAAAAGTATGAATAAAAGAGGAGCGTTGTTGAGCCTGCTGGATCCAGG (double strand) [yebF regulatory region] | no binding |
